# Measurements reported in patent US10227575B2, “Multi-domain enzymes having cutinase activity, compositions comprising same and uses thereof” (OZYMES, priority 2015, dated 2019).
# Like-named read-outs stand apart in the source and are kept apart here.
# Assays:
# [1] = Thermostability of purified KrCUT (40-60° C.); assay type: biochemical
# Protocol: Enzyme stability was studied over the temperature range of 40-60° C. using purified KrCUT. Aliquots were withdrawn at defined times (10, 30 and 80 min), chilled on ice, and assayed for activity against p-NP butyrate at room temperature. KrCUT appeared thermostable up to 45° C.
# [2] = Protocol: Molar masses of the samples were determined with universal calibration with the refractive index detector and the viscosity detector. The universal calibration curve was based on polystyrene standards [Polymer Laboratories (Amherst, Mass.) and Aldrich (Oakville, ON)] using the molar masses determined by the manufacturer and the intrinsic viscosities measured by the apparatus. The software OmniSEC™ software from Viscotek was used for data collection and calibration. Separation in THF was performed by injecting 100 μL of 1.5-2 mg/mL solutions of standards or samples into thermostatically controlled SuperRes™ columns [35° C.; PAS-102, PAS102.5, PAS-103L, each 300 mm×8 mm; PolyAnalytik (London, ON)]. The flow rate was 1 mL/min.
# Alternatively, a thin film was prepared from 1 g of commercial available PCL pellets and used for degradation. The polymer was dissolved in dichloromethane in a 1 L beaker. The solvent was allowed to evaporate overnight and the resulting film dried to constant weight under reduced pressure. Prior to enzymatic treatment the film was cut into pieces (20 mg) of approximately 1.5 cm×1.5 cm and thickness of approximately 0.1 mm. The reaction mixture was monitored by HPLC and SEC as described above.
# To quantify this further, pellets of polycaprolactone (PCL) as well as films of PCL were incubated with KrCUT at various enzyme concentrations (1.25 μM, 2.5 μM, and 5 μM representing 4.7, 9.5 and 19 enzyme Units) at 37° C. The degradation of the polymer was followed over time by analyzing aliquots of the reaction mixture by HPLC for the detection of the released monomer (6-hydroxyhexanoic acid) and characterization of the remaining polymer by SEC after lypholization of the sample.
# [3] = Adsorption assay on PHB granules (Langmuir isotherm); assay type: binding
# Protocol: Purified KrCUT of concentrations ranging from 0.16 to 3.2 mg/mL were mixed with 25 mg PHB in 50 mM sodium phosphate (pH 8.0) in a total volume of 1 mL and mixed by gently shaking for 3 h. The PHB polymer was removed by centrifugation and the concentration of protein in the supernatant was determined by the BCA method. The concentration of bound protein at a particular concentration of cutinase was calculated as the difference between a control without added PHB and free cutinase after incubation with PHB.
# Adsorption assays were carried out following procedures of Kasuya et al. (1999). Purified KrCUT and KrCUT189 at concentrations ranging from 0.16 to 3.2 mg/mL were added to a suspension of 25 mg PHB in 50 mM sodium phosphate (pH 8.0) in a total volume 1 mL. The mixture was incubated at room temperature with gentle shaking for at least 3 h. The PHB polymer was removed by centrifugation and the concentration of protein in the supernatant was determined by the BCA method. The concentration of bound protein at a particular concentration of cutinase was calculated as the difference between a control without added PHB and free cutinase after incubation with PHB. An isotherm of [Bound](mg/mg PHB) vs [Free] (mM) was generated and binding parameters were determined by non-linear regression using the Langmuir equation:
# [formula] where [E]=Ead+[E]e, is the concentration of the protein added; Emax is the maximum amount of protein adsorbed on the polyester granules, and K is the adsorption equilibrium constant of the protein.
molecule,measurement,setting,value
"KrCUT: mature Kineococcus radiotolerans cutinase, amino acids 34-294 of SEQ ID NO: 1; SEQ ID NO: 6 (protein, Kineococcus radiotolerans; (1)..(261) KrCUT (lacking residues 1-33 of ssKrCUT)) ATCSDVDVVFARGTGETPGLGVVGGPFVRSLTGELSDRTVTSHAVDYAASSSQASAGPGATAMSAHVREVAAACPSTRFVLGGYSQGATVTDIALGIRTGTTTGTPVPAELAGRVAAVVVFGNPLGLSGRTIATASSTYGPKSKDYCNSSDSVCGSAPKTGTGGHLSYASNGSTTDGARFAAGLVRAAGTPTTPTPTPTPTPVPTTCVRDSTRDHVAADRAVSLYGRAYARGSRDSLGATSSYNVVSLQQVEGGWRLVTAC",thermostable up to,"[1]; 10, 30 and 80 min heat treatment",up to 45 °C
same,activity left after heat treatment,"[1]; 50° C. and above, 10 min",virtually no activity left
same,polymer peak in SEC,"[2]; 2.5-5 μM, 24 hours",complete disappearance of the polymer
same,"6-hydroxy hexanoic acid from PCL pellets, % of the maximum yield","[2]; PCL pellets, 2.5 μM protein, 24 hours",18%
same,degradation of thin films of PCL,"[2]; enzyme 1.25 μM, 24 hours",nearly completely degraded
same,acidic monomers released from PCL,"[2]; enzyme 2.5 or 5 μM, 6 hours, 37° C.",~90%
same,Mn of remaining PCL,[2]; time 0 h,44000 Daltons
same,Mw of remaining PCL,[2]; time 0 h,63300 Daltons
same,PCL (SEC),[2]; time 0 h,100%
same,acid (HPLC),[2]; time 0 h,0%
same,Mn of remaining PCL,[2]; time 1 h,53800 Daltons
same,Mw of remaining PCL,[2]; time 1 h,64400 Daltons
same,PCL (SEC),[2]; time 1 h,61%
same,acid (HPLC),[2]; time 1 h,28%
same,Mn of remaining PCL,[2]; time 3 h,55000 Daltons
same,Mw of remaining PCL,[2]; time 3 h,66600 Daltons
same,PCL (SEC),[2]; time 3 h,27%
same,acid (HPLC),[2]; time 3 h,60%
same,Mn of remaining PCL,[2]; time 6 h,58200 Daltons
same,Mw of remaining PCL,[2]; time 6 h,68100 Daltons
same,PCL (SEC),[2]; time 6 h,12%
same,acid (HPLC),[2]; time 6 h,85%
same,Mn of remaining PCL,[2]; time 24 h,69500 Daltons
same,Mw of remaining PCL,[2]; time 24 h,74000 Daltons
same,PCL (SEC),[2]; time 24 h,0.3%
same,acid (HPLC),[2]; time 24 h,100%
same,binding to PHB,[3],binds efficiently
same,degradation of PHB,[3],did not degrade
same,adsorption equilibrium constant (K),"[3]; 25° C., pH 8.0",0.12±0.03 ml/mg PHB
same,maximum amount of cutinase absorbed on the PHB granules (Emax),"[3]; 25° C., pH 8.0",23.68 ± 0.03 µg/mg
